In US20140065163A1:

Target: recombinant marmoset GM-CSF (Callithrix jacchus) (Callithrix jacchus)
Assay: cell-based or functional assay

Sequence of recombinant marmoset GM-CSF (Callithrix jacchus) (Callithrix jacchus) (chain, as listed by the source limits assumed, form in doubt): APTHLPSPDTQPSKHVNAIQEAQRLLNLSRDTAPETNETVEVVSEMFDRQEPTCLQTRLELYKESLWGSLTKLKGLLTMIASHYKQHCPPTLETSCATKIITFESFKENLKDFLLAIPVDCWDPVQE

IC50, inhibition of marmoset GM-CSF induced TF-1 proliferation (1.9 nM) [nM]	Binder
0.7	MSB0010603 4K21 (4K21 hVH S56V-T62S hVL N28I-H34S-N53R-H93Y) (antibody, V domains shown) VH: EVQLVESGGGLVQPGGSLRLSCAASGFAFSAYDMSWVRQAPGKRLELVAYISSGGSVFYYPDSVKGRFTISRDNAKNSLYLQMNSLRAEDTAVYYCTRHLGFDYWGQGTLVTVSS VL: DIVMTQSPLSLPVTPGEPASISCRSSQSLVNSIGNTYLSWYLQKPGQSPQLLIYKVSRRFSGVPDRFSGSGSGTDFTLKISRVEAEDVGVYYCSQSTYVPPTFGQGTKVEIK
2	MSB0010600 4K21 (4K21 hVH S55R-T62S hVL S27eY-N28I-H34S-N53R-H93Y) (antibody, V domains shown) VH: EVQLVESGGGLVQPGGSLRLSCAASGFAFSAYDMSWVRQAPGKRLELVAYISSGGRSFYYPDSVKGRFTISRDNAKNSLYLQMNSLRAEDTAVYYCTRHLGFDYWGQGTLVTVSS VL: DIVMTQSPLSLPVTPGEPASISCRSSQSLVNYIGNTYLSWYLQKPGQSPQLLIYKVSRRFSGVPDRFSGSGSGTDFTLKISRVEAEDVGVYYCSQSTYVPPTFGQGTKVEIK
1.3	MSB0010602 4K21 (4K21 hVH S55K-T62S hVL S27eY-N28I-H34S-N53R-H93Y) (antibody, V domains shown) VH: EVQLVESGGGLVQPGGSLRLSCAASGFAFSAYDMSWVRQAPGKRLELVAYISSGGKSFYYPDSVKGRFTISRDNAKNSLYLQMNSLRAEDTAVYYCTRHLGFDYWGQGTLVTVSS VL: DIVMTQSPLSLPVTPGEPASISCRSSQSLVNYIGNTYLSWYLQKPGQSPQLLIYKVSRRFSGVPDRFSGSGSGTDFTLKISRVEAEDVGVYYCSQSTYVPPTFGQGTKVEIK
1.5	MSB0010595 4K21 (4K21 hVH S56V-T62S hVL S27eY-N28I-H34S-N53R-H93Y) (antibody, V domains shown) VH: EVQLVESGGGLVQPGGSLRLSCAASGFAFSAYDMSWVRQAPGKRLELVAYISSGGSVFYYPDSVKGRFTISRDNAKNSLYLQMNSLRAEDTAVYYCTRHLGFDYWGQGTLVTVSS VL: DIVMTQSPLSLPVTPGEPASISCRSSQSLVNYIGNTYLSWYLQKPGQSPQLLIYKVSRRFSGVPDRFSGSGSGTDFTLKISRVEAEDVGVYYCSQSTYVPPTFGQGTKVEIK
0.7	MSB0010601 4K21 (4K21 hVH S55K-T62S hVL N28I-H34S-N53R-H93Y) (antibody, V domains shown) VH: EVQLVESGGGLVQPGGSLRLSCAASGFAFSAYDMSWVRQAPGKRLELVAYISSGGKSFYYPDSVKGRFTISRDNAKNSLYLQMNSLRAEDTAVYYCTRHLGFDYWGQGTLVTVSS VL: DIVMTQSPLSLPVTPGEPASISCRSSQSLVNSIGNTYLSWYLQKPGQSPQLLIYKVSRRFSGVPDRFSGSGSGTDFTLKISRVEAEDVGVYYCSQSTYVPPTFGQGTKVEIK
0.9	MSB0010599 4K21 (4K21 hVH S55R-T62S hVL N28I-H34S-N53R-H93Y) (antibody, V domains shown) VH: EVQLVESGGGLVQPGGSLRLSCAASGFAFSAYDMSWVRQAPGKRLELVAYISSGGRSFYYPDSVKGRFTISRDNAKNSLYLQMNSLRAEDTAVYYCTRHLGFDYWGQGTLVTVSS VL: DIVMTQSPLSLPVTPGEPASISCRSSQSLVNSIGNTYLSWYLQKPGQSPQLLIYKVSRRFSGVPDRFSGSGSGTDFTLKISRVEAEDVGVYYCSQSTYVPPTFGQGTKVEIK
